Results as given in article PMC7171158, “NusA directly interacts with antitermination factor Q from phage λ” (Scientific Reports, 2020).

Target: T1, NusA acidic repeat 2 domain (NusA-AR2) (E. coli, UniProt P0AFF6 426-495)
T1 construct: acidic repeat 2 domain (C-terminal domain) of E. coli NusA
Test: NMR titration; 2H,15N-NusA-SKK titrated with NusA-AR2 and 15N-NusA-AR2 titrated with NusA-SKK (up to 1:7.5); 5 mm tubes; 298 K; 50 mM MOPS pH 6.5, 100 mM NaCl, 150 mM D-glucose, 5 mM DTT; two-state fit of chemical shift changes
Settings: both partners purified

B1: NusA-SKK (S1, KH1 and KH2 domains of NusA) (domain or fragment)
chain: not shown
B1 was tested, and the Kd was < 341 µM.
